Values belong to the molecule of their own block, whether it stands above or below them.
What was measured:
[1] = molecular target: RYBP (RING1A and YY1 binding protein) (UniProt Q8N488); assay: other fluorescence titration; ARM-PKP1 0-20 uM added to fixed RYBP 4.6 uM; 25 °C; 20 mM Tris pH 7.5, 5 mM TCEP, 150 mM NaCl; fluorescence at 330 nm; fit with ligand depletion
NUPR1 (Homo sapiens) = NUPR1 (Homo sapiens) (UniProt O60356); settings: cited from earlier work
[2] = molecular target: armadillo-repeat domain of plakophilin 1 (ARM-PKP1); assay: ITC; RYBP (100 uM) in the syringe titrated into ARM-PKP1 (10 uM) in the cell; 25 °C; 20 mM Tris pH 7.5, 5 mM TCEP, 150 mM NaCl; single binding site model

Sequence of UniProt O60356 (O60356 whole entry, the tested form may be a part): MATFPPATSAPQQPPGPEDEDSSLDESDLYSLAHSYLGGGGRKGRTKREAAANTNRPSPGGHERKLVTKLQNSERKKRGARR

Kd [1]: 9 µM
Molecule: armadillo-repeat domain of plakophilin 1 (ARM-PKP1) (domain or fragment)

Molecule: Plakophilin 1 ARM domain (from UniProt Q13835)
Kd (NUPR1 (Homo sapiens)): 10 µM

Kd [2]: 12 µM
dH [2]: -11.9 kcal/mol
stoichiometry N [2]: 1
B1: RYBP (RING1A and YY1 binding protein) (natural protein)
chain: MTMGDKKSPTRPKRQAKPAADEGFWDCSVCTFRNSAEAFKCSICDVRKGTSTRKPRINSQLVAQQVAQQYATPPPPKKEKKEKVEKQDKEKPEKDKEISPSVTKKNTNKKTKPKSDILKDPPSEANSIQSANATTKTSETNHTSRPRLKNVDRSTAQQLAVTVGNVTVIITDFKEKTRSSSTSSSTVTSSAGSEQQNQSSSGSESTDKGSSRSSTPKGDMSAVNDESF
